Source: patent publication US8299097B2, “Methods for treating inflammatory disorders” (The Brigham and Women's Hospital, Inc., priority 2008, dated 2012)

Columns and labels:
LAD2 cells [1] = assay: MIP-1β generation by LAD2 cells (ELISA); format: cell-based, human; settings: apyrase 10 μM, LTE4 500 nM, 6 h
Method: FIG. 2. Requirement for P2Y12 receptors in LTE4-mediated LAD2 cell activation. 2A. Calcium flux of LAD2 cells stimulated with the indicated agonists (500 nM) in the presence or absence of the P2Y12 receptor-selective antagonist 2-MeSAMP (100 μM). […] 2B. […] Cells sensitized overnight with IgE and challenged with anti-IgE were used as the positive control. 2C. […] Results in 2B and 2C are mean±SEM from three independent experiments each. 2D. Effect of shRNA-mediated knockdown of P2Y12 receptor mRNA expression by LAD2 cells.
(§1) FIG. 9. Effect of apyrase treatment on LT-mediated activation of LAD2 cells. 9A. […] Concentrations of MIP-1β were measured by ELISA. 9B. […] Lysates were resolved by SDS-PAGE and probed with the indicated antibodies against phospho- and total ERK. Results in 9A are the mean±½ range from two experiments, while 9B is representative of two experiments.
(§2) Pre-treatment of the LAD2 cells with 2-MesAMP blocked the LTE4-mediated increment in MIP-1β production by >50% (FIG. 2B). […] To exclude potential off-target effects of the inhibitors, samples of LAD2 cells were transfected with lentiviruses encoding a P2Y12 sequence-specific shRNA, a CysLT1R-specific shRNA, or an empty vector control before stimulation. […] LTE4- and LTD4-dependent production of PGD2 were abrogated by the knockdowns of P2Y12 and CysLT1R, respectively (FIG. 2C, bottom). Neither GPCR knockdown altered MIP-1β generation or PGD2 production in response to IgE-anti-IgE (FIG. 2C). LTE4-mediated MIP-1β generation (FIG. 9A) and ERK activation (FIG. 9B) were not altered by treatment of LAD2 cells with apyrase to degrade extracellular ADP.
The concentration of MIP-1β was measured by an ELISA (ENDOGEN®). PGD2 was quantitated by a PGD2-methoxylamine hydrochloride (PGD2-MOX) assay.

LAD2 cells [2] = assay: ERK activation in LAD2 cells with apyrase; format: cell-based, human; settings: LTE4 500 nM, 15 minutes
Method: as §1, §2
After stimulation with the respective agonists, LAD2 cells and hMCs (0.5×10^6) were lysed with lysis buffer (BD Bioscience) supplemented with protease inhibitor cocktail (Roche) and sodium vanadate (1 mM). Lysates were subjected to 4-12% SDS-PAGE and transferred to PVDF membranes. […]

human CysLT1R = target: T1, human CysLT1R (Homo sapiens, UniProt Q9Y271); assay: ERK activation in CysLT1R CHO transfectants; format: cell-based
T1 construct: expressed in transfected cells
T1 sequence (Q9Y271 1-337): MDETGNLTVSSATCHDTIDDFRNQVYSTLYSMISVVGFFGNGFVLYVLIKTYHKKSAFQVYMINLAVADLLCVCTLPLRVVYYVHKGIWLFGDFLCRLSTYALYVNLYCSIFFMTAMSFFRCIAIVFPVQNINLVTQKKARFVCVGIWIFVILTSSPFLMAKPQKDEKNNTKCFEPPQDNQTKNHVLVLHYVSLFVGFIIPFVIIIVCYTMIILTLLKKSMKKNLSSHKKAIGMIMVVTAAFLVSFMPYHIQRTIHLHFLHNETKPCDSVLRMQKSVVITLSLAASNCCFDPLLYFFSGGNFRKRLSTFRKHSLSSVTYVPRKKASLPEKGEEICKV
Method: (§3) FIG. 1. Activation by recombinant human P2Y12 receptors in response to cys-LTs. The human P2Y12 receptor cDNA was cloned in forward and reverse orientation into the expression vector pEF1/His B and transfected into CHO cells using Fugene HD reagent. Stably-expressing clones were selected using G418 (1000 μg/ml), and expression of the construct was confirmed by cytofluorographic detection of the HIS tag. 1A. […] 1B. SDS-PAGE immunoblots showing phosphorylation of ERK2 by CHO cells stably expressing human P2Y12 receptors in reverse (negative control) or forward orientations. […] The blots were stripped and re-probed with an antibody (Ab) recognizing total ERK1 and ERK2. […] 1C. Effect of the selective P2Y12 receptor antagonist 2-MesAMP (MeS) on ligand-induced ERK phosphorylation. P2Y12 receptor expressing CHO cells were stimulated with the same doses of agonists used in 1A, in the absence or presence of 2-MesAMP (100 μM). 1D. Comparison of P2Y12 receptor-mediated responses to cys-LTs with those of recombinant human CysLT1R and CysLT2R expressed in CHO cells, and the effect of the CysLT1R antagonist MK571 (1 μM).
(§4) A P2Y12 receptor cDNA was amplified by reverse transcriptase polymerase chain reaction (RT-PCR) from RNA extracted from primary hMCs and cloned into a mammalian expression vector. Expression was confirmed by detection of a histidine (HIS) tag by flow cytometry. […]

human CysLT2R = target: T2, human CysLT2R (Homo sapiens, UniProt Q9NS75); assay: ERK activation in CysLT2R CHO transfectants; format: cell-based
T2 construct: expressed in transfected cells
T2 sequence (Q9NS75 1-346): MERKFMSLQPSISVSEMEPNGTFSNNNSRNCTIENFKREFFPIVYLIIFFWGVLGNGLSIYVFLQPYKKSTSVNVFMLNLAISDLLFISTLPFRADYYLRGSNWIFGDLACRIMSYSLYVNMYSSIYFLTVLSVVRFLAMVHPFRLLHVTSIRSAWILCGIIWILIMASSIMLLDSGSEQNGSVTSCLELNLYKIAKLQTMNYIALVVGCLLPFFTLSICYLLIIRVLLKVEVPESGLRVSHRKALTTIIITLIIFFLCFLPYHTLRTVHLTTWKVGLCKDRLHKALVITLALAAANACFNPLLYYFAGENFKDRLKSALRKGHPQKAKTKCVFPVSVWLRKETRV
Method: as §3, §4

human P2Y12 = human P2Y12 (Homo sapiens, UniProt Q9H244); assay: ERK activation (phosphorylation immunoblot) in P2Y12-expressing CHO cells; format: cell-based; set-up: polyhistidine (HIS) tag (C); expressed in transfected cells; settings: 2-MesAMP 100 μM, MK571 1 μM
human P2Y12, sequence (Q9H244 whole entry): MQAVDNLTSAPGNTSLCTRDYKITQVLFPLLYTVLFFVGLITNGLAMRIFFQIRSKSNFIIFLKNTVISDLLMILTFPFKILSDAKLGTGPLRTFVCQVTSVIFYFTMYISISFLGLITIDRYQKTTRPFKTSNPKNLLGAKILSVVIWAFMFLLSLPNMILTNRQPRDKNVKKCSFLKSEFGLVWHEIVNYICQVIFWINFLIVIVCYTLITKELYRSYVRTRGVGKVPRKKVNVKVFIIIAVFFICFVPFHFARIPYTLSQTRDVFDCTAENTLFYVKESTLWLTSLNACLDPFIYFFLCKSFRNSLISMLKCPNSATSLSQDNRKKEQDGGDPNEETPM
Method: FIG. 1. Activation by recombinant human P2Y12 receptors in response to cys-LTs. The human P2Y12 receptor cDNA was cloned in forward and reverse orientation into the expression vector pEF1/His B and transfected into CHO cells using Fugene HD reagent. Stably-expressing clones were selected using G418 (1000 μg/ml), and expression of the construct was confirmed by cytofluorographic detection of the HIS tag. 1A. […] Results in second experiment were identical. 1B. SDS-PAGE immunoblots showing phosphorylation of ERK2 by CHO cells stably expressing human P2Y12 receptors in reverse (negative control) or forward orientations. […] The blots were stripped and re-probed with an antibody (Ab) recognizing total ERK1 and ERK2. […] 1C. Effect of the selective P2Y12 receptor antagonist 2-MesAMP (MeS) on ligand-induced ERK phosphorylation. P2Y12 receptor expressing CHO cells were stimulated with the same doses of agonists used in 1A, in the absence or presence of 2-MesAMP (100 μM). 1D. Comparison of P2Y12 receptor-mediated responses to cys-LTs with those of recombinant human CysLT1R and CysLT2R expressed in CHO cells, and the effect of the CysLT1R antagonist MK571 (1 μM). Data in 1B-1D are from individual experiments that were repeated at least 3 times with similar results.
FIG. 8. […] Cells were stably transfected with the human P2Y12 construct and stimulated for 15 minutes with the indicated ligand concentrations. […] Results in a second experiment were similar.
A P2Y12 receptor cDNA was amplified by reverse transcriptase polymerase chain reaction (RT-PCR) from RNA extracted from primary hMCs and cloned into a mammalian expression vector. Expression was confirmed by detection of a histidine (HIS) tag by flow cytometry. Another cohort of CHO cells were stably transfected with a P2Y12 receptor construct in reverse orientation as a negative control. […] The cys-LT-induced ERK activation blocked by pre-treatment of the cells with pertussis toxin (PTX), was attenuated by treatment with the P2Y12 receptor-selective antagonist 2-methylthioadenosine monophosphate (2-MesAMP) (FIG. 1C), and was resistant to MK571, an inhibitor that blocks CysLT1R and some P2Y receptors (Mamedova, L., et al. 2005. Biochem. Pharmacol. 71:115-125). […] These responses were resistant to PTX and 2-MesAMP, and susceptible to MK571 in the case of the CysLT1R transfectants.
A human P2Y12 receptor cDNA was amplified by 30 cycles of PCR from reverse-transcribed total RNA extracted from primary cord blood hMCs. The primer sequences were 5′-[…] (SEQ ID NO: 1) and 3′-[…] (SEQ ID NO: 2). The fragment was cloned into a TA vector (INVITROGEN™). After verifying the nucleotide sequence, the fragment was subcloned into the multiple cloning site of the expression vector pEF1/His B, encoding a C-terminal polyhistidine (HIS) tag. […]

| Substance | effect on LTE4-mediated MIP-1β generation (LAD2 cells [1]) | effect on LTE4-mediated ERK activation (LAD2 cells [2]) | effect on cys-LT-induced ERK activation (human CysLT1R) | effect on cys-LT-induced ERK activation (human CysLT2R) | effect on cys-LT-induced ERK activation (human P2Y12) |
| --- | --- | --- | --- | --- | --- |
| apyrase | not altered | not altered |  |  |  |
| pertussis toxin |  |  | resistant | resistant | blocked |
